US9127073B2, “Rock2 and Rock3, two new gain-of-function variants of the cytokinin receptors AHK2 and AHK3” (Freie Universitat Berlin, priority 2009, dated 2015)

B1: rock3: constitutively active gain-of-function variant of cytokinin receptor AHK3 of Arabidopsis thaliana, SEQ ID No. 2, encoded by SEQ ID No. 4 (protein, listed as Arabidopsis thaliana)
chain: MSLFHVLGFGVKIGHLFWMLCCWFVSWFVDNGIEDKSGLLVGSVGDLEKTKMTTLKKKNKMWFWNKISSSGLKIPSFSYQFLGSVKFNKAWWRKLVVVWVVFWVLVSIWTFWYFSSQAMEKRKETLASMCDERARMLQDQFNVSMNHVQAMSILISTFHHGKIPSAIDQRTFSEYTDRISFERPLTSGVAYAMRVLHSEREEFERQQGWTIRKMYSLEQNPVHKDDYDLEALEPSPVQEEYAPVIFAQDTVSHVVSLDMLSGKEDRENVLRARSSGKGVLTAPFPLIKTNRLGVILTFAVYKRDLPSNATPKERIEATNGYLGGVFDIESLVENLLQQLASKQTILVNVYDITNHSQPISMYGTNVSADGLERVSPLIFGDPLRKHEMRCRFKQKPPWPVLSMVTSFGILVIALLVAHIIHATVSRIHKVEEDCDKMKQLKKKAEAADVAKSQFLATVSHEIRTPMNGVLGMLHMLMDTELDVTQQDYVRTAQASGKALVSLINEVLDQAKIESGKLELEEVRFDLRGILDDVLSLFSSKSQQKGVELAVYISDRVPDMLIGDPGRFRQILTNLMGNSIKFTEKGHIFVTVHLVDELFESIDGETASSPESTLSGLPVADRQRSWENFKAFSSNGHRSFEPSPPDINLIVSVEDTGVGIPVEAQSRIFTPFMQVGPSISRTHGGTGIGLSISKCLVGLMKGEIGFSSTPKVGSTFTFTAVFSNGMQPAERKNDNNQPIFSEFRGMKAVVVDHRPARAKVSWYHFQRLGIRVEVVPRVEQALHYLKIGTTTVNMILIEQEIWNREADDFIKKLQKDPLFLSPKLILLANSVESSISEALCTGIDPPIVIVKPLRASMLAATLQRGLGIGIREPPQHKGPPALILRNLLLGRKILIVDDNNVNLRVAAGALKKYGADVVCAESGIKAISLLKPPHEFDACFMDIQMPEMDGFEATRRIRDMEEEMNKRIKNGEALIVENGNKTSWHLPVLAMTADVIQATHEECLKCGMDGYVSKPFEAEQLYREVSRFFNSPSDTES
B2: rock2: constitutively active gain-of-function variant of cytokinin receptor AHK2 of Arabidopsis thaliana, SEQ ID No. 1, encoded by SEQ ID No. 3 (protein, listed as Arabidopsis thaliana)
chain: MSITCELLNLTSKKAKKSSSSDKKWLKKPLFFLILCGSLVIVLVMFLRLGRSQKEETDSCNGEEKVLYRHQNVTRSEIHDLVSLFSDSDQVTSFECHKESSPGMWTNYGITCSLSVRSDKQETRGLPWNLGLGHSISSTSCMCGNLEPILQQPENLEEENHEEGLEQGLSSYLRNAWWCLILGVLVCHKIYVSHSKARGERKEKVHLQEALAPKKQQQRAQTSSRGAGRWRKNILLLGILGGVSFSVWWFWDTNEEIIMKRRETLANMCDERARVLQDQFNVSLNHVHALSILVSTFHHGKIPSAIDQRTFEEYTERTNFERPLTSGVAYALKVPHSEREKFEKEHGWAIKKMETEDQTVVQDCVPENFDPAPIQDEYAPVIFAQETVSHIVSVDMMSGEEDRENILRARASGKGVLTSPFKLLKSNHLGVVLTFAVYDTSLPPDATEEQRVEATIGYLGASYDMPSLVEKLLHQLASKQTIAVDVYDTTNTSGLIKMYGSEIGDISEQHISSLDFGDPSRNHEMHCRFKHKLPIPWTAITPSILVLVITFFVGYILYEAINRIATVEEDCQKMRELKARAEAADIAKSQFLATVSHEIRTPMNGVLGMLKMLMDTDLDAKQMDYAQTAHGSGKDLTSLINEVLDQAKIESGRLELENVPFDMRFILDNVSSLLSGKANEKGIELAVYVSSQVPDVVVGDPSRFRQIITNLVGNSIKFTQERGHIFISVHLADEVKEPLTIEDAVLKQRLALGCSESGETVSGFPAVNAWGSWKNFKTCYSTESQNSDQIKLLVTVEDTGVGIPVDAQGRIFTPFMQADSSTSRTYGGTGIGLSISKRLVELMQGEMGFVSEPGIGSTFSFTGVFGKAETNTSITKLERFDLAIQEFTGLRALVIDNRNIRAEVTRYELRRLGISADIVSSLRMACTCCISKLENLAMILIDKDAWNKEEFSVLDELFTRSKVTFTRVPKIFLLATSATLTERSEMKSTGLIDEVVIKPLRMSVLICCLQETLVNGKKRQPNRQRRNLGHLLREKQILVVDDNLVNRRVAEGALKKYGAIVTCVESGKAALAMLKPPHNFDACFMDLQMPEMDGFEATRRVRELEREINKKIASGEVSAEMFCKFSSWHVPILAMTADVIQATHEECMKCGMDGYVSKPFEEEVLYTAVARFFEPC

How the values were obtained:
[1] = test system: Arabidopsis thaliana Columbia (Col-0); experiment: Shoot parameters of mutant plants and transgenic lines (height, siliques, stem thickness, flower size); assay type: in vivo; details: compared to wild-type or ore12 plants; for size of flowers: flowers at stage 14
Method: (§1) The Columbia (Col-0) ecotype of Arabidopsis thaliana was used as the wild type. Plants were grown in the greenhouse on soil or under sterile conditions in Petri dishes containing ATS-medium (Estelle, M. A., and Somerville, C. (1986). Auxin-resistant mutants of Arabidopsis thaliana with an altered morphology. Mol. Gen. Genet. 206, 200-206). All plants were grown at 22° C. under long-day conditions (16 h light/8 h dark).
For the construction of the pAHK2:rock2 transgene a 2124 by promoter region of AHK2 was amplified by PCR from genomic DNA of A. thaliana Col-0 and cloned with Gateway™ technology into the pDONR™ P4-P1R entry vector (Invitrogen, Karlsruhe, Germany). After cloning the AHK2 coding sequence with Gateway™ technology into the pDONR™ 221 entry vector (Invitrogen) the rock2 point mutation was introduced by PCR based mutagenesis with the “QuickChange Site-Directed Mutagenesis”-Kit (Stratagene, La Jolla, USA) to obtain the rock2 Allele. Both fragments were combined with Multisite Gateway™ recombinational cloning in the pK7m24GW,3 vector (Karimi et al., 2005). To obtain the pAHK3:rock3 construct a 2062 bp promoter region of AHK3 was amplified by PCR from genomic DNA of A. thaliana Col-0 and the fragment was inserted into pDONR™P4-P1R entry vector (Invitrogen). The AHK3 cDNA containing the open reading frame of the gene was PCR-amplified from A. thaliana Col-0 and cloned into pDONR™222 entry vector (Invitrogen). To introduce the rock3 point mutation the “QuickChange Site-Directed Mutagenesis”-Kit (Stratagene, La Jolla, USA) was used to get the rock3 allele. The AHK3 promoter and the ROCK3 cDNA were combined with Multisite Gateway™ recombinational cloning in the pK7m24GW,3 vector (Karimi, M., De Meyer, B., and Nilson, P. (2005). Modular cloning in plant cells. Trends Plant Sci. 10, 103-105). Both constructs were introduced into Agrobacterium tumefaciens strain GV3101 and A. thaliana Col-0 plants were transformed using the floral-dip method (Clough, S. J., and Bent, A. F. (1998). Floral dip: a simplified method for Agrobacterium-mediated transformation of Arabidopsis thaliana. Plant J. 16, 735-743). Transgenic lines were selected using kanamycin and propagated into the T3 or T4 generation.
(§2) At 18 days after germination digital pictures were taken of rosettes and the rosette diameter was measured using the Scion Image program (Scion Corporation, Frederick, Md., USA). Flowers at stage 14 were photographed and their size was also measured using the Scion Image program.
(§3) Fresh weights were measured by weighting either rosettes, shoots without rosettes, or whole aerial parts of the plants. The final plant height and the number of siliques were determined after termination of flowering. For analysis of seed yield, plants were put into paper bags after termination of flowering. After plants were kept dry for additional three weeks, total seed weight was determined.

[2] = test system: Arabidopsis thaliana Columbia (Col-0); experiment: Vegetative growth and fresh weight of mutant alleles in wild-type background; assay type: in vivo; details: for vegetative growth of wild-type plants: mutant allele in Col-0 background, compared to wild type
Method: as §1
In order to analyze the consequences of the rock2 and rock3 mutations in wild type, the rock2 and rock3 suppressor mutants in 35S:CKX1 background were crossed to wild-type Columbia. […] The F2 generation was screened for rock2 and rock3 plants in wild-type background (called then rock2 and rock3 mutants).
as §2, §3

35S:CKX1 plants = experiment: Reversion of the cytokinin-deficiency phenotype in the 35S:CKX1 background; assay type: in vivo, Arabidopsis thaliana
Method: Approximately 25000 35S:CKX1 seeds (Werner, T., Motyka, V., Laucou, V., Smets, R., Van Onckelen, H., and Schmülling, T. (2003). Cytokinin-deficient transgenic Arabidopsis plants show multiple developmental alterations indicating opposite functions of cytokinins in the regulation of shoot and root meristem activity. Plant Cell 15, 2532-2550) were soaked for 16 h in 100 ml 0.2% (v/v) ethyl methane sulfonate at room temperature. The M1 generation was grown as single plants and the M2 generation was screened for plants with wild-type-like phenotype.
Mapping populations for rock2 and rock3 were generated by crossing the rock2 35S:CKX1 and rock3 35S:CKX1 plants with wild type ecotype Landsberg erecta. The F2 progeny plants were used to map rock2 and rock3.
In order to compare the consequences of the rock3 mutation with those of the ore12 mutation the latter was introgressed into the 35S:CKX1 background (the rock3 was identified in this background). […] However, at different time points during development the degree of reversion is less strong than the reversion achieved with the rock3 allele. This difference is most evident for seedling size and rosette diameter. These two parameters are good indicators for a changed cytokinin status of the CKX1ox plants.

[3] = test system: Arabidopsis thaliana Columbia (Col-0); experiment: Natural leaf senescence of leaf 6 (Fv/Fm of PSII, chlorophyll content) under long-day conditions; assay type: in vivo
Method: as §1
The maximum efficiency of PSII photochemistry (Fv/Fm ratio) of dark adapted plants was measured with FluorCam (Photon Systems Instruments, Brno, Czech Republic). Chlorophyll contents of individual leaves were measured using the Chlorophyll Meter SPAD-502 (Konika Minolta, Bremen, Germany), taking the mean value of two measurements on the same leaf.

Row | Molecule | stem thickness [1] | size of flowers [1] | vegetative growth of wild-type plants [2] | reversion of the phenotypic consequences of CKX1 overexpression (cytokinin deficiency) (35S:CKX1 plants) | longer life time of leaves compared to wild-type leaves ([3]; leaf 6, long-day conditions) | number of siliques on the main stem [1] | shoot height (plant height) [1] | increase in fresh weight of rosettes and whole plant over the complete life cycle ([2]; difference particularly evident at 32-40 DAG) | onset of leaf senescence ([3]; leaf 6, compared to wild type and among mutants)
1 | B1 | thicker stems | bigger flowers | significantly enhance the vegetative growth | suppress the phenotypic consequences of cytokinin deficiency | about ten | – | – | – | –
2 | B2 | thicker stems | bigger flowers | significantly enhance the vegetative growth | suppress the phenotypic consequences of cytokinin deficiency | – | more siliques on the main stem | increased | effect is strongest | earliest onset of leaf senescence
